Substitutions are numbered along the chain they refer to. Names may count otherwise. Blank lines part the entries; values can stand above or below the binder they belong to.
What was measured:
human CLDN1 = target: T1, human CLDN1 (human, UniProt O95832 1-211); assay: FACS on HEK293 cells transiently expressing human CLDN1
T1 construct: whole, on cells; also called hCLDN1
T1 sequence (looked up): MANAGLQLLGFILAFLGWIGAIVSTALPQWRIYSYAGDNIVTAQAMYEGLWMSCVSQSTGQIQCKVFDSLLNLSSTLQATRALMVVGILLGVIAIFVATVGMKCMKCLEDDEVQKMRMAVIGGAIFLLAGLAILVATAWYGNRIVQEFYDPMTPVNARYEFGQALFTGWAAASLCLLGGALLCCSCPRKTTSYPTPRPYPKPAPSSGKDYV
Procedure: Antibodies were assayed for binding affinity to human CLDN18.2 paralogous proteins by FACS (ACEA NovoCyte). CLDN1, CLDN2, CLDN3, CLDN4, CLDN6 and CLDN9 genes of the human CLDN18.2 paralogous family were transiently transfected into HEK293 cells. […] The cell density was adjusted to 10⁶ cells/mL, and 50 μL of the cell suspension was added to each well of a 96-well plate. An antibody was diluted to 60 nM with FACS buffer, and 50 μL of the antibody dilution was added to each well of the 96-well plate. After 2 h of incubation at 4° C., the plate was washed twice with FACS buffer. Then, an FACS buffer containing a secondary antibody was added. After 1 h of incubation at 4° C., the plate was washed twice with FACS buffer. The cells were resuspended in fixative solution, and run FACS.

[1] = target: T2, Biotinylated human CD3E&D (human, UniProt P07766 23-126; P04234 22-105, biotin label); assay: BLI (Octet), biotinylated CD3 on SA sensor, 1:1 global fit;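 note: antibodies applied as analyte in 2-fold serial dilutions, with a 180 s association phase followed by a 300 s dissociation phase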
T2 construct: also called CDD-H82W6
T2 sequence (P07766 23-126, chain 1 of 2): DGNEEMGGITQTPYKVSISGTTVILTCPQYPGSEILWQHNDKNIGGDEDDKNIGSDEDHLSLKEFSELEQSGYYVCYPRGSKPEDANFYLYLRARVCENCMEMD
T2 sequence (P04234 22-105, chain 2 of 2): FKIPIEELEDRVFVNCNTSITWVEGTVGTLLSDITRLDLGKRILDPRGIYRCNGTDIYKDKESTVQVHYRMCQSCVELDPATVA
Procedure: (§1) The binding kinetics between proteins and antibodies was analyzed by the Biolayer Interferometry (BLI) technique using an Octet Red 96e (Fortebio) system. Human CD3E (Acro, CDE-H5223), cynomolgus CD3E (Acro, CDE-C5226) and murine CD3E (Acro, CDE-M5256) were mixed with biotin (Thermo Scientific, A39257) in a molar ratio of 1:3. The mixture was incubated at 4° C. overnight, and then excess biotin was removed to obtain biotinylated CD3E. The rotation speed was set at 1000 rpm for the system. […] After being equilibrated in the buffer for 120 s, the SA sensor with captured CD3 was allowed to bind to 2-fold serially diluted antibodies. […] Finally, the SA sensor was immersed in a 10 mM glycine-hydrochloric acid solution at pH 1.5 for regeneration to elute the antibodies bound to the sensor. […] For the interactions of fast binding and fast dissociation, the “steady state” method was selected to fit the data to obtain KD(M) values.

[2] = target: T3, Cynomolgus CD3E (Acro, CDE-C5226) (cynomolgus, UniProt Q95LI5 22-117, biotinylated (mixed with biotin 1:3)); assay: as above
T3 sequence (looked up): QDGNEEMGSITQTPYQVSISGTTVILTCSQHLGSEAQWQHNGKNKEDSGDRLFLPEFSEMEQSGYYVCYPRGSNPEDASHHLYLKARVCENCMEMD
Procedure: as §1

[3] = target: T4, Biotinylated cynomolgus CD3E&D (cynomolgus, UniProt Q95LI5 22-117; Q95LI8 22-105, biotin label); assay: as above
T4 construct: also called CDD-C82W6
T4 sequence (Q95LI8 22-105, one chain of several): as the sequence (P04234 22-105, chain 2 of 2) above, with I5V, N15K, I20V, S32T, D33N, I34N, T64A, S74N, V83L counted along it
Procedure: as §1

human CLDN18.2 [4] = target: human CLDN18.2 (human); assay: cell-based or functional assay
[5] = target: CLDN18.2 of SNU620 cells (methionine to leucine at amino acid 149) (human, UniProt P56856-2 1-261); assay: cell-based or functional assay
CLDN18.2 of SNU620 cells (methionine to leucine at amino acid 149), sequence (P56856 other isoform, or with tags, fused parts or gaps limits assumed): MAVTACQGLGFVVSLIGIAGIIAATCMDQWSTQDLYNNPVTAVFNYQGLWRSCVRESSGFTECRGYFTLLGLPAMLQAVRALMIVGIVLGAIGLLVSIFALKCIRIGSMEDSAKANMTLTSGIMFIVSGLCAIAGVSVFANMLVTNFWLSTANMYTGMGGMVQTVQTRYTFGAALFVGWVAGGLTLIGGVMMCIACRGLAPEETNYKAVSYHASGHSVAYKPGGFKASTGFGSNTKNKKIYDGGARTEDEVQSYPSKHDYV

human CLDN18.2 [6] = target: human CLDN18.2 (human); assay: cell-based or functional assay; remark: listed apart in the source
human CLDN18.2 [7] = target: T5, human CLDN18.2 (human); assay: competition FACS on HEK293/hCLDN18.2 cells; competitor 10 nM biotinylated PR000400
T5 construct: the HEK293 line was made with a GenScript plasmid; also called hCLDN18.2
Procedure: This example is to study the binding of anti-human CLDN18.2 bispecific antibodies to the epitope region of a human CLDN18.2 antigen. Competitive binding experiments were performed at the cellular level using human CLDN18.2-overexpressing HEK293/hCLDN18.2 cells. […] The mixture was well mixed and incubated at 4° C. for 30 min. 25 μL of the corresponding serially diluted non-biotinylated anti-human CLDN18.2 antibody was added. The mixture was well mixed and incubated at 4° C. for 1 h. The cells in each well were washed twice with 200 μL of pre-cooled FACS buffer (2% BSA in DPBS) and centrifuged at 500 g at 4° C. for 5 min, and then the supernatant was discarded. A fluorescent secondary antibody (Jackson ImmunoResearch, 016-540-084, 1:500) was added. The mixture was incubated at 4° C. in the absence of light for 1 h. The cells in each well were washed twice with 200 μL of pre-cooled FACS buffer (2% BSA in DPBS) and centrifuged at 500 g at 4° C. for 5 min, and then the supernatant was discarded. Finally, the cells in each well were resuspended in 200 μL of pre-cooled FACS buffer, and the fluorescence signal values were read using a ACEA_NovoCyte.

- binding result (human CLDN1): no binding
- Kd [1]: 144 nM
- koff [1]: 0.0122 s⁻¹
- kon [1]: 84700 M⁻¹ s⁻¹
- Kd [2]: 140 nM
- koff [2]: 0.0105 s⁻¹
- kon [2]: 75100 M⁻¹ s⁻¹
- Kd [3]: 113 nM
- koff [3]: 0.00965 s⁻¹
- kon [3]: 85700 M⁻¹ s⁻¹
- CDC, EC50 (nM), HEK293/hCLDN18.2 (human CLDN18.2 [4]): 37.1 nM
- TDCC, Titer EC50 (pM), SNU620 [5]: 113 pM
- TDCC, Titer EC50 (pM), NUGC4_D8 (human CLDN18.2 [6]): 185 pM
- IC50 (human CLDN18.2 [7]): 87.7 nM
- Maximum inhibition rate (%) (human CLDN18.2 [7]): 97.7%
B1: PR006292 (bispecific antibody, human IgG1, lambda)
chain: EVQLVESGGGLVQPGGSLRLSCAASGFTFSSYWMHWVRQVPGKGLVWVSRISSDASRTIYADSVKGRFTISRDNAKNTLYLQMNSLRAEDTAVYYCARGEDHDILTGYPIRGQGTTVTVSSGGGGSGGGGSGGGGSEVQLVESGGGLVQPGGSLRLSCAASGFTFSSYWMHWVRQVPGKGLVWVSRISSDASRTIYADSVKGRFTISRDNAKNTLYLQMNSLRAEDTAVYYCARGEDHDILTGYPIRGQGTTVTVSSASEPKSSDKTHTCPPCPAPEAAGAPSVFLFPPKPKDTLMISRTPEVTCVVVDVSHEDPEVKFNWYVDGVEVHNAKTKPREEQYNSTYRVVSVLTVLHQDWLNGKEYKCKVSNKALPAPIEKTISKAKGQPREPQVCTLPPSREEMTKNQVSLSCAVKGFYPSDIAVEWESNGQPENNYKTTPPVLDSDGSFFLVSKLTVDKSRWQQGNVFSCSVMHEALHNHYTQKSLSLSPGK
heavy: EVQLVESGGGLVQPGGSLKLSCAASGFTFSTYAMNWVRQASGKGLEWVGRIRSKYNNYATYYADSVKDRFTISRDDSKNTAYLQMNSLKTEDTAVYYCTRHGNFGNSYVSWFAYWGQGTLVTVSSASTKGPSVFPLAPSSKSTSGGTAALGCLVKDYFPEPVTVSWNSGALTSGVHTFPAVLQSSGLYSLSSVVTVPSSSLGTQTYICNVNHKPSNTKVDKKVEPKSCDKTHTCPPCPAPEAAGAPSVFLFPPKPKDTLMISRTPEVTCVVVDVSHEDPEVKFNWYVDGVEVHNAKTKPREEQYNSTYRVVSVLTVLHQDWLNGKEYKCKVSNKALPAPIEKTISKAKGQPREPQVYTLPPCREEMTKNQVSLWCLVKGFYPSDIAVEWESNGQPENNYKTTPPVLDSDGSFFLYSKLTVDKSRWQQGNVFSCSVMHEALHNHYTQKSLSLSPGK
light: QAVVTQEPSLTVSPGGTVTLTCRSSTGAVTTSNYANWVQQKPGQAPRGLIGGTNKRAPWTPARFSGSLLGDKAALTLLGAQPEDEAEYFCALWYSNLWVFGGGTKLTVLGQPKAAPSVTLFPPSSEELQANKATLVCLISDFYPGAVTVAWKADSSPVKAGVETTTPSKQSNNKYAASSYLSLTPEQWKSHRSYSCQVTHEGSTVEKTVAPTECS
notes: structure 1; CD3 Fab from PR003886, CLDN18.2 VH from PR007245; IgG1 knob/hole, AAA (L234A, L235A, G237A)

- binding result (human CLDN1): no binding
- Kd [1]: 132 nM
- koff [1]: 0.0119 s⁻¹
- kon [1]: 90200 M⁻¹ s⁻¹
- Kd [2]: 165 nM
- koff [2]: 0.0122 s⁻¹
- kon [2]: 74000 M⁻¹ s⁻¹
- Kd [3]: 152 nM
- koff [3]: 0.00942 s⁻¹
- kon [3]: 62200 M⁻¹ s⁻¹
- TDCC, Titer EC50 (pM), SNU620 [5]: 57.1 pM
- TDCC, Titer EC50 (pM), IM95 (human CLDN18.2 [6]): 938 pM
- TDCC, Titer EC50 (pM), NUGC4_D8 (human CLDN18.2 [6]): 57.9 pM
- IC50 (human CLDN18.2 [7]): 103 nM
- Maximum inhibition rate (%) (human CLDN18.2 [7]): 97.8%
B2: PR006384 (bispecific antibody, human IgG1, lambda)
chain: B1 chain with D54T, A55G, D190T, A191G
heavy: B1 heavy
light: B1 light
notes: structure 1; CD3 Fab from PR003886, CLDN18.2 VH from PR007246; AAA

Reference: patent publication US20250340631A1 (HARBOUR BIOMED SHANGHAI, published 2025)
